According to patent EP4786492A1:

How the values were obtained:
[1] = target: DLL3 endogenously expressed on NCI-H82 cells (UniProt Q9NYJ7); assay: FACS on NCI-H82 cells; antibody 0.16 nM
[2] = target: monkey DLL3 on CHO-K1-cyno DLL3 cells (cynomolgus monkey); assay: FACS, CHO-K1-cyno DLL3 cells, 0.0064 nM antibody
[3] = target: mouse DLL3 on CHO-K1-mDLL3 cells (mouse) (UniProt O88516); assay: FACS, CHO-K1-mDLL3 cells, 0.00128 nM antibody
[4] = target: monkey DLL3 on CHO-K1-cyno DLL3 cells (cynomolgus monkey); assay: FACS, CHO-K1-cyno DLL3 cells, 20 nM antibody
[5] = target: monkey DLL3 on CHO-K1-cyno DLL3 cells (cynomolgus monkey); assay: FACS, CHO-K1-cyno DLL3 cells, 100 nM antibody
[6] = target: DLL3 endogenously expressed on NCI-H82 cells (UniProt Q9NYJ7); assay: FACS on NCI-H82 cells; antibody 0.8 nM
[7] = target: DLL3 endogenously expressed on NCI-H82 cells (UniProt Q9NYJ7); assay: FACS on NCI-H82 cells; antibody 20 nM
[8] = target: human DLL4 protein (Acro, Cat. No. DL4-H5227) (human) (UniProt Q9NR61); assay: ELISA, coated hDLL4; maximum over 0.1, 1, 10, 100 nM antibody
human DLL4 protein (Acro, Cat. No. DL4-H5227) (human), sequence (Q9NR61 27-524 limits assumed): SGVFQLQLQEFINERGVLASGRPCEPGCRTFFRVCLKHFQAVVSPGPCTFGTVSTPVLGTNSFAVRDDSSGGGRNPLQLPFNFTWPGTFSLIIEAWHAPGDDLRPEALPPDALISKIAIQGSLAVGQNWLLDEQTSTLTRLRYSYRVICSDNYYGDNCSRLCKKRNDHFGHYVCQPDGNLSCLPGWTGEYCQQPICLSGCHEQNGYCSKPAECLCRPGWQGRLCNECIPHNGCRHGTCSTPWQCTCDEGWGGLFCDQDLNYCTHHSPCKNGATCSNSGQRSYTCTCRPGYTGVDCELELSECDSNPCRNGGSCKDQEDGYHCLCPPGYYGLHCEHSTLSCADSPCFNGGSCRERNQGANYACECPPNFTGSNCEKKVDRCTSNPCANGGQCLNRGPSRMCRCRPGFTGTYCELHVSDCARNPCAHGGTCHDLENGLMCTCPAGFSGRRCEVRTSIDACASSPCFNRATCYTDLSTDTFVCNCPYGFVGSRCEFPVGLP

[9] = target: monkey DLL3 on CHO-K1-cyno DLL3 cells (cynomolgus monkey); assay: FACS, CHO-K1-cyno DLL3 cells, 0.00128 nM antibody
[10] = target: mouse DLL3 on CHO-K1-mDLL3 cells (mouse) (UniProt O88516); assay: FACS, CHO-K1-mDLL3 cells, 4 nM antibody
[11] = target: human DLL1 protein (Acro, Cat. No. DL1-H52H8) (human) (UniProt O00548); assay: ELISA, coated hDLL1; maximum over 0.1, 1, 10, 100 nM antibody
human DLL1 protein (Acro, Cat. No. DL1-H52H8) (human), sequence (O00548 18-540 limits assumed): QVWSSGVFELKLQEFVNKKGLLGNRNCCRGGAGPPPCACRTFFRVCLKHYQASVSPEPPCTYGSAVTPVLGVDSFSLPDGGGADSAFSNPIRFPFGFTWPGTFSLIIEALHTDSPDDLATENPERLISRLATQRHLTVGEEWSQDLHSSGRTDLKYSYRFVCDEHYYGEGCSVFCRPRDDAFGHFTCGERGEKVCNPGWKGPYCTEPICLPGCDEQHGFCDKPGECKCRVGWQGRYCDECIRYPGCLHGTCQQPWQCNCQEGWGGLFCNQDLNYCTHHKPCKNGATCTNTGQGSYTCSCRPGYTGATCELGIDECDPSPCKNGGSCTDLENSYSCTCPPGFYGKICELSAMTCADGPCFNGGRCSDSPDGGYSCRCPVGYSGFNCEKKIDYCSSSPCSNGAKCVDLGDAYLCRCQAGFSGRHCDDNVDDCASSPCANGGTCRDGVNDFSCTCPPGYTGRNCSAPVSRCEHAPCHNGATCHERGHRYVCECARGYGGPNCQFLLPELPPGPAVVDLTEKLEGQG

[12] = target: mouse DLL3 on CHO-K1-mDLL3 cells (mouse) (UniProt O88516); assay: FACS, CHO-K1-mDLL3 cells, 20 nM antibody
[13] = target: monkey DLL3 on CHO-K1-cyno DLL3 cells (cynomolgus monkey); assay: FACS, CHO-K1-cyno DLL3 cells, 0.032 nM antibody
[14] = target: mouse DLL3 on CHO-K1-mDLL3 cells (mouse) (UniProt O88516); assay: FACS, CHO-K1-mDLL3 cells, 100 nM antibody
[15] = target: mouse DLL3 on CHO-K1-mDLL3 cells (mouse) (UniProt O88516); assay: FACS, CHO-K1-mDLL3 cells, 0.8 nM antibody
[16] = target: DLL3 endogenously expressed on NCI-H82 cells (UniProt Q9NYJ7); assay: FACS on NCI-H82 cells; antibody 4 nM
[17] = target: DLL3 endogenously expressed on NCI-H82 cells (UniProt Q9NYJ7); assay: FACS on NCI-H82 cells; antibody 0.032 nM
[18] = target: DLL3 endogenously expressed on NCI-H82 cells (UniProt Q9NYJ7); assay: FACS on NCI-H82 cells; antibody 0.0064 nM
[19] = target: DLL3 endogenously expressed on NCI-H82 cells (UniProt Q9NYJ7); assay: FACS on NCI-H82 cells; antibody 100 nM
[20] = target: mouse DLL3 on CHO-K1-mDLL3 cells (mouse) (UniProt O88516); assay: FACS, CHO-K1-mDLL3 cells, 0.032 nM antibody
[21] = target: DLL3 endogenously expressed on NCI-H82 cells (UniProt Q9NYJ7); assay: FACS on NCI-H82 cells; antibody 0.00128 nM
[22] = target: monkey DLL3 on CHO-K1-cyno DLL3 cells (cynomolgus monkey); assay: FACS, CHO-K1-cyno DLL3 cells, 0.16 nM antibody
[23] = target: monkey DLL3 on CHO-K1-cyno DLL3 cells (cynomolgus monkey); assay: FACS, CHO-K1-cyno DLL3 cells, 4 nM antibody
[24] = target: mouse DLL3 on CHO-K1-mDLL3 cells (mouse) (UniProt O88516); assay: FACS, CHO-K1-mDLL3 cells, 0.16 nM antibody
[25] = target: monkey DLL3 on CHO-K1-cyno DLL3 cells (cynomolgus monkey); assay: FACS, CHO-K1-cyno DLL3 cells, 0.8 nM antibody
[26] = target: human DLL3 protein (extracellular segment, His tag) (human) (UniProt Q9NYJ7); assay: SPR (Biacore 8K), antibody captured on Protein A chip, DLL3 antigen in solution, 1:1 Langmuir fit
human DLL3 protein (extracellular segment, His tag) (human), sequence (Q9NYJ7 27-492): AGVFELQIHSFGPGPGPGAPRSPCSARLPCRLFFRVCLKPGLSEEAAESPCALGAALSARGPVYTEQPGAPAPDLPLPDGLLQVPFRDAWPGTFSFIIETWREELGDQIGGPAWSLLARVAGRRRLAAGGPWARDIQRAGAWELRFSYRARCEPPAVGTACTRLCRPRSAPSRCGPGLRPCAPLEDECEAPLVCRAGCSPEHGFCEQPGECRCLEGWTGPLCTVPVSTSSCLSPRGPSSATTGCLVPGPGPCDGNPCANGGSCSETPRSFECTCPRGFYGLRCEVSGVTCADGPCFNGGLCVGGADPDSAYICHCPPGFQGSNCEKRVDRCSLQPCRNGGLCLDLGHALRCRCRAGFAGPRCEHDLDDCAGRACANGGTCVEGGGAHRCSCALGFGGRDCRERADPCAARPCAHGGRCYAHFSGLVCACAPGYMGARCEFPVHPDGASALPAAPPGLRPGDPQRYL

[27] = target: mouse DLL3 on CHO-K1-mDLL3 cells (mouse) (UniProt O88516); assay: FACS, CHO-K1-mDLL3 cells, 0.0064 nM antibody
[28] = target: human DLL3 protein expressed on CHO-K1 recombinant cells (human DLL3 extracellular segment fused to EpCAM transmembrane and intracellular regions) (human) (UniProt Q9NYJ7); assay: FACS, CHO-K1 hDLL3 cells, 0.0064 nM antibody
human DLL3 protein expressed on CHO-K1 recombinant cells (human DLL3 extracellular segment fused to EpCAM transmembrane and intracellular regions) (human), sequence (Q9NYJ7 other isoform, or with tags, fused parts or gaps limits assumed): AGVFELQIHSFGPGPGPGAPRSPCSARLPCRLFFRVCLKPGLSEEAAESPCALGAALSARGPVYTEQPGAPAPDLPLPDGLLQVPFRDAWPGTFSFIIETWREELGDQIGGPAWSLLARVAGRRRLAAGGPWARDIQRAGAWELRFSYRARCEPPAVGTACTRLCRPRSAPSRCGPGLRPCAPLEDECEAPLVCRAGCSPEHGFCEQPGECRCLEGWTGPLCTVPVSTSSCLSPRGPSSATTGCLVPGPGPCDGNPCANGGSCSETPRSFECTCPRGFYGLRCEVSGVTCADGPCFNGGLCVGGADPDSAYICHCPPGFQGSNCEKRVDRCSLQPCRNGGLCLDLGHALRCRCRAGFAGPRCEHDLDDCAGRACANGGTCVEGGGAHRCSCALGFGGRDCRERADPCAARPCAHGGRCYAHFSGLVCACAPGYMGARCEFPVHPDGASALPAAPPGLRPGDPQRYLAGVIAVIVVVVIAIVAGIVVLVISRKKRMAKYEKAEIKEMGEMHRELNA

[29] = target: human DLL3 protein expressed on CHO-K1 recombinant cells (human DLL3 extracellular segment fused to EpCAM transmembrane and intracellular regions) (human) (UniProt Q9NYJ7); assay: FACS, CHO-K1 hDLL3 cells, 0.032 nM antibody
[30] = target: human DLL3 protein expressed on CHO-K1 recombinant cells (human DLL3 extracellular segment fused to EpCAM transmembrane and intracellular regions) (human) (UniProt Q9NYJ7); assay: FACS, CHO-K1 hDLL3 cells, 0.16 nM antibody
[31] = target: human DLL3 protein expressed on CHO-K1 recombinant cells (human DLL3 extracellular segment fused to EpCAM transmembrane and intracellular regions) (human) (UniProt Q9NYJ7); assay: FACS, CHO-K1 hDLL3 cells, 0.00128 nM antibody
[32] = target: human DLL3 protein expressed on CHO-K1 recombinant cells (human DLL3 extracellular segment fused to EpCAM transmembrane and intracellular regions) (human) (UniProt Q9NYJ7); assay: FACS, CHO-K1 hDLL3 cells, 100 nM antibody
[33] = target: human DLL3 protein expressed on CHO-K1 recombinant cells (human DLL3 extracellular segment fused to EpCAM transmembrane and intracellular regions) (human) (UniProt Q9NYJ7); assay: FACS, CHO-K1 hDLL3 cells, 0.8 nM antibody
[34] = target: human delta-like ligand 3 (DLL3) on SHP77 cells (human) (UniProt Q9NYJ7); assay: FACS on SHP77 cells
human delta-like ligand 3 (DLL3) on SHP77 cells (human), sequence (Q9NYJ7 27-618, stated change not applied): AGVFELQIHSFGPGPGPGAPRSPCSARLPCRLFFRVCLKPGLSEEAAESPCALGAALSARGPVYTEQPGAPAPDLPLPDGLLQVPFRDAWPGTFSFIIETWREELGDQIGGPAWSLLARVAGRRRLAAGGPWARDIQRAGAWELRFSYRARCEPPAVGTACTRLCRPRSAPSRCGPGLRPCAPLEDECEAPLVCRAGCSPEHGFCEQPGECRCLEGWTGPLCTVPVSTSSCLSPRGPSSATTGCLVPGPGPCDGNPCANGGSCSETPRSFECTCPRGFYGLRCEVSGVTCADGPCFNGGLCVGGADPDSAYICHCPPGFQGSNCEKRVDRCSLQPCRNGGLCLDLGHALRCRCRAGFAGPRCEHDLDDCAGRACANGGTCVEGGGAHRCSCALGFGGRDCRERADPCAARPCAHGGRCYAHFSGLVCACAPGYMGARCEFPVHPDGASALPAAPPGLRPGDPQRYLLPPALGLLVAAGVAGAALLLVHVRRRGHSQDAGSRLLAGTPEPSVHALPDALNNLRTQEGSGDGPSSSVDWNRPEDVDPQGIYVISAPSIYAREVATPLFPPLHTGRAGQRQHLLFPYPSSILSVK

[35] = target: human DLL3 protein expressed on CHO-K1 recombinant cells (human DLL3 extracellular segment fused to EpCAM transmembrane and intracellular regions) (human) (UniProt Q9NYJ7); assay: FACS, CHO-K1 hDLL3 cells, 4 nM antibody
[36] = target: human DLL3 protein expressed on CHO-K1 recombinant cells (human DLL3 extracellular segment fused to EpCAM transmembrane and intracellular regions) (human) (UniProt Q9NYJ7); assay: FACS, CHO-K1 hDLL3 cells, 20 nM antibody

monkey DLL3 on CHO-K1-cyno DLL3 cells (cynomolgus monkey), sequence (chain, as listed by the source limits assumed): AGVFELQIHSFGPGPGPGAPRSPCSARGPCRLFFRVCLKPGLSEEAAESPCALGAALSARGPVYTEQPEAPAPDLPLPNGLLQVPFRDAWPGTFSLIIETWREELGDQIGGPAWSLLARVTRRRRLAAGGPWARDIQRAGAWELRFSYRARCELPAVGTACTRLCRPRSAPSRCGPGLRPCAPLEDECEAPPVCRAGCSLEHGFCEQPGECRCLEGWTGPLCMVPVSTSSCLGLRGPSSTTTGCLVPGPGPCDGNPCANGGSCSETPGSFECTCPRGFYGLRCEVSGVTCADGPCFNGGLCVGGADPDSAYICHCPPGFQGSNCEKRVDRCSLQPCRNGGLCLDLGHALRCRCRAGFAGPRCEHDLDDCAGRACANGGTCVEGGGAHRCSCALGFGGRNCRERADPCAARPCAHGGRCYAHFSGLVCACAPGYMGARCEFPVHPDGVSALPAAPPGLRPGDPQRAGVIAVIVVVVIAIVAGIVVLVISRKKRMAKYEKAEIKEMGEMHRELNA
DLL3 endogenously expressed on NCI-H82 cells, sequence (Q9NYJ7 27-618): as the sequence (Q9NYJ7 27-618, stated change not applied) above
mouse DLL3 on CHO-K1-mDLL3 cells (mouse), sequence (O88516 other isoform, or with tags, fused parts or gaps limits assumed): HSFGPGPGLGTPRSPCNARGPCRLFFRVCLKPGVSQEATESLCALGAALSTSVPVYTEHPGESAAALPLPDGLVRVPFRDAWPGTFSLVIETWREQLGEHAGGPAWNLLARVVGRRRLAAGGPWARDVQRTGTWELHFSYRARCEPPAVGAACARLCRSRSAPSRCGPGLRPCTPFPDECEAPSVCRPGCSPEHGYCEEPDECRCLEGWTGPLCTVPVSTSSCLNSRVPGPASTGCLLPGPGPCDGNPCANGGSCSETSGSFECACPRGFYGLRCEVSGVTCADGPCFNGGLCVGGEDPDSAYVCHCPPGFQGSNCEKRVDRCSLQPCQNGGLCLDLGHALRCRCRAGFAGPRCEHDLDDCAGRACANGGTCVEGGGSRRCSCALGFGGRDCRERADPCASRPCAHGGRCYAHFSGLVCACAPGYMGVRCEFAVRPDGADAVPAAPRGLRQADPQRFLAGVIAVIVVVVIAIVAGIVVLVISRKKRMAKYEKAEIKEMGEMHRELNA

B1: Hab009VL3aVH1-hFc (scFv, part only; not given: VL-VH linker and human IgG1 Fc, V domains shown, not shown: another chain or arm of the molecule; a dimerising Fc or GST; small tags and cut ends)
VL: DIVMTQSPLSLPVTPGEPASISCRASQTISDYLHWYLQKSHQSPQLLIKYASQSISGVPDRFSGSGSGTDFTLKISRVEAEDVGVYYCQQGHSFPLTFGQGTKLEIK
VH: EVQLVQSGAEVKKPGASVKVSCKASGYTFTSYWMHWVRQAPGQRLEWMGTIYPGNSDTRYNQKFKDRVTITADTSASTAYMELSSLRSEDTAVYYCTRSYDYGDLDYWGQGTTVTVSS
In the case of B1, the MFI [1] is reported as 669, the MFI [2] is reported as 3760 MFI and the MFI [3] is reported as 190 MFI. The MFI [4] was 30000 MFI, the MFI [5] was 29600 MFI and the MFI [6] was 709. It also gave an MFI [7] of 796, an Emax of OD450 nm binding value [8] of 0.06 OD450 nm and an MFI [9] of 1450 MFI. It also gave an MFI [10] of 458 MFI, an Emax of OD450 nm binding value [11] of 0.06 OD450 nm and an MFI [12] of 491 MFI. For the same binder, the MFI [13] was 4020 MFI, the MFI [14] was 553 MFI and the MFI [15] was 413 MFI. It also gave an MFI [16] of 738, an MFI [17] of 371 and an MFI [18] of 179. It also gave an MFI [19] of 872, an MFI [20] of 287 MFI and an MFI [21] of 123. For the same binder, the MFI [22] was 10600 MFI, the MFI [23] was 30000 MFI and the MFI [24] was 345 MFI. For the same binder, the MFI [25] was 24700 MFI, the Kd [26] was 0.304 nM and the koff [26] was 0.00175 s⁻¹. For the same binder, the kon [26] was 5.76e+06 M⁻¹ s⁻¹ and the MFI [27] was 269 MFI.

B2: Hab008L3H5-hFc (scFv, part only; not given: scFv linker and human IgG1 Fc, V domains shown, not shown: another chain or arm of the molecule; a dimerising Fc or GST; small tags and cut ends)
VL: DIVMTQSPDSLAVSLGERATINCKASQNVGTAVAWYQQKPGQSPKLLIFSASIRYTGVPDRFSGSGSGTDFTLTISSLQAEDVAVYYCQQYSSSPYTFGGGTKVEIK
VH: EVQLVQSGAEVKKPGASVKVSCKASGYTFTDYYMNWVRRAPGQRLEWMGIINPYNGGTSYNQKFRGRVTITVDKSASTAYMELSSLRSEDTAVYYCSRYDYDYDVEGAMDYWGQGTTVTVSS
B2 gave an MFI [28] of 131 MFI, an MFI [1] of 102 and an MFI [2] of 142 MFI. For the same binder, the MFI [4] was 20300 MFI, the MFI [29] was 235 MFI and the MFI [30] was 671 MFI. The MFI [31] was 100 MFI, the MFI [5] was 21600 MFI and the MFI [6] was 152. For the same binder, the MFI [7] was 674, the Emax of OD450 nm binding value [8] was 0.18 OD450 nm and the MFI [9] was 103 MFI. For the same binder, the MFI [32] was 8950 MFI, the MFI [33] was 2370 MFI and the MFI at 0.00128 nM [34] was 117 MFI. It also gave an MFI at 0.0064 nM [34] of 117 MFI, an MFI at 0.032 nM [34] of 122 MFI and an MFI at 0.16 nM [34] of 133 MFI. The MFI at 0.8 nM [34] was 194 MFI, the MFI at 4 nM [34] was 330 MFI and the MFI at 20 nM [34] was 634 MFI. It also gave an MFI at 100 nM [34] of 974 MFI, an Emax of OD450 nm binding value [11] of 0.11 OD450 nm and an MFI [13] of 252 MFI. The MFI [16] was 388, the MFI [17] was 91 and the MFI [18] was 90. It also gave an MFI [19] of 1340, an MFI [21] of 99 and an MFI [22] of 724 MFI. The MFI [23] was 12900 MFI, the MFI [35] was 7140 MFI and the MFI [36] was 8320 MFI. For the same binder, the MFI [25] was 3470 MFI, the Kd [26] was 0.902 nM and the koff [26] was 0.000312 s⁻¹. It also gave a kon [26] of 345000 M⁻¹ s⁻¹.

B3: Hab013VL2VH2a-hFc (scFv, part only; not given: scFv linker and human IgG1 Fc, V domains shown, not shown: another chain or arm of the molecule; a dimerising Fc or GST; small tags and cut ends)
VL: EIVLTQSPATLSLSPGERATLSCRASKSVSTSGFSYMHWYQQKPGQPPRLLIYLASNLESGIPARFSGSGSGTDFTLTISSLEPEDFAVYYCQHSRELPFTFGQGTKLEIK
VH: EVQLVQSGAEVKKPGSSVKVSCKASGYAFSNYWINWVRQAPGQGLEWMGQINPGDGDTIYNSKFKGRVTITADKSTSTAYMELSSLRSEDTAVYYCEREGRNYGDFAYWGQGTTVTVSS
For B3, the MFI [28] was 270 MFI, the MFI [1] was 670 and the MFI [3] was 113 MFI. It also gave an MFI [29] of 789 MFI, an MFI [30] of 3190 MFI and an MFI [31] of 164 MFI. It also gave an MFI [6] of 831, an MFI [7] of 1170 and an Emax of OD450 nm binding value [8] of 0.05 OD450 nm. For the same binder, the MFI [10] was 557 MFI, the MFI [32] was 19500 MFI and the MFI [33] was 11200 MFI. The MFI at 0.00128 nM [34] was 116 MFI, the MFI at 0.0064 nM [34] was 131 MFI and the MFI at 0.032 nM [34] was 183 MFI. The MFI at 0.16 nM [34] was 323 MFI, the MFI at 0.8 nM [34] was 541 MFI and the MFI at 4 nM [34] was 719 MFI. For the same binder, the MFI at 20 nM [34] was 876 MFI, the MFI at 100 nM [34] was 1140 MFI and the Emax of OD450 nm binding value [11] was 0.05 OD450 nm. The MFI [12] was 655 MFI, the MFI [14] was 764 MFI and the MFI [15] was 463 MFI. For the same binder, the MFI [16] was 1030, the MFI [17] was 356 and the MFI [18] was 185. It also gave an MFI [19] of 1520, an MFI [20] of 179 MFI and an MFI [21] of 130. The MFI [35] was 14900 MFI, the MFI [36] was 16300 MFI and the MFI [24] was 313 MFI. The Kd [26] was 0.112 nM, the koff [26] was 0.000371 s⁻¹ and the kon [26] was 3.32e+06 M⁻¹ s⁻¹. The MFI [27] was 125 MFI.
